Laboratory results published in the supplement of paper PMC10724198.
± gives the standard deviation of the averaged measurements.

Tested on: Saccharomyces cerevisiae
Test: protein stability index of tFT-peptide fusion (C-terminal peptide) (PSI (0-1 scale)); higher = more stable (slower turnover)
Conditions: genetic background: wild type; temperature: 30 C
Experimental: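 Multiplexed protein stability (MPS) profiling in S. cerevisiae. Random 12-aa peptides (tFT-X12 library) are fused to the C-terminus of a sfGFP-mCherry tandem fluorescent timer, after mCherry and a GGGS linker. Cells are FACS-sorted into 8 mCherry/sfGFP bins and deep-sequenced. The protein stability index (PSI) is the read-weighted bin average, scaled from 0 (unstable) to 1 (stable). Only peptides with >10 reads are reported; cells were grown at 30 °C in SC-His with glucose.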
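Also: PSI is a weighted mean of sequencing reads over stability bins, variants kept only with over 10 reads, mCherry proximal and sfGFP distal, peptide attached via GGGS linker.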

Sequence | protein stability index
FCFFGRPCLSSV | 0.714 ± 0.14
FCKTKVRDKATR | 0.73 ± 0.035
FCLLPPFPFFRS | 0.661 ± 0.022
FCLSPGYHSQLC | 0.692 ± 0.023
FCTDFDTLCREC | 0.647 ± 0.021
FCVFSFAAPGFP | 0.6746 ± 0.00074
FCWRDIICAFFR | 0.72 ± 0.019
FCWSFGVLLSFS | 0.559 ± 0.0099
FDCTSCIPFRFL | 0.679 ± 0.035
FDLLSVGRARSW | 0.716 ± 0.036
FDSLFVSLSFAI | 0.661 ± 0.03
FFAPPSSPSFSR | 0.822 ± 0.063
FFDFCACICTFF | 0.655 ± 0.045
FFGSFVFSLLFY | 0.6025 ± 0.0047
FFLLPHPSRFFP | 0.734 ± 0.025
FFLSDDALVYNH | 0.788 ± 0.065
FFLWSLLGGLPC | 0.661 ± 0.02
FFPLSALFARPS | 0.676 ± 0.0073
FFPQLRPNSSTS | 0.724 ± 0.042
FFRFLLPFLPPS | 0.70866 ± 0.0006
FFSPPLPPAPLT | 0.775 ± 0.057
FFSVCLVFGLPG | 0.543 ± 0.013
FFTDACQRVMKG | 0.633 ± 0.049
FFWFIASTNFSS | 0.609 ± 0.015
FGAFCSWLLLHS | 0.61 ± 0.026

Sequence | protein stability index
FGCDCFCPFCLR | 0.706 ± 0.019
FGDTYICKPFWG | 0.765 ± 0.033
FGESPWARVGGG | 0.5749 ± 0.005
FGFSAVCFGNLC | 0.6729 ± 0.0024
FGGSFEGRGRYY | 0.737 ± 0.018
FGTVIEVVCGVM | 0.5277 ± 0.0014
FGVGSITDEELD | 0.735 ± 0.036
FGYEPVSLRAEF | 0.675 ± 0.029
FILSPGHFHRVL | 0.688 ± 0.076
FILTSLPSLCFP | 0.696 ± 0.04
FILWSLIMGPYA | 0.522 ± 0.019
FIPGGPSGFCFR | 0.669 ± 0.075
FIVGIQTKPVKL | 0.661 ± 0.11
FKFCLRSESSSE | 0.66 ± 0.085
FKIFSGLVTLGG | 0.7337 ± 0.0036
FKKTSRHTINRK | 0.757 ± 0.023
FKNVTGWLFFCR | 0.702 ± 0.064
FKTLIRKEQESE | 0.754 ± 0.013
FLCLLPLRLFGI | 0.603 ± 0.021
FLDFLFLLVPSV | 0.554 ± 0.019
FLDTSSYFMFAS | 0.7123 ± 0.007
FLFCLLGSFRSF | 0.5829 ± 0.004
FLGEKTCRSIIS | 0.646 ± 0.083
FLGFGGAWSWGG | 0.766 ± 0.16
FLHVSLSFSCSL | 0.541 ± 0.0063

Sequence | protein stability index
FLLPQLFVSSSF | 0.699 ± 0.035
FLLSVVQGAVHQ | 0.6 ± 0.036
FLLVPSPPSFTH | 0.715 ± 0.12
FLPCPPSPPSPR | 0.765 ± 0.06
FLPQCLGSNFHL | 0.725 ± 0.016
FLRLVRIPNQVQ | 0.6531 ± 0.0014
FLSRPIGAAIWA | 0.543 ± 0.026
FLSYPFLSRPFL | 0.804 ± 0.058
FLTSTLVSSGGD | 0.676 ± 0.034
FLTVDGKLMRGP | 0.699 ± 0.021
FLVCFPFALFGA | 0.495 ± 0.052
FLYELGTTSSPR | 0.73 ± 0.025
FLYPPAHPLLPP | 0.7 ± 0.024
FMPRPSNRLSPS | 0.723 ± 0.0078
FNGAISESGLPT | 0.664 ± 0.053
FNIPYLVQATGD | 0.676 ± 0.09
FNTCCQNTWKVK | 0.677 ± 0.15
FPAPPPPPRPAS | 0.69 ± 0.033
FPFCAFPPSPTC | 0.75 ± 0.038
FPFLAPSLVLPT | 0.569 ± 0.012
FPFPTLSDLRPT | 0.698 ± 0.036
FPGLHVNHPAWP | 0.688 ± 0.027
FPHPPPSLPSPR | 0.789 ± 0.064
FPHSPPFRLPLS | 0.759 ± 0.089
FPLHPLLTSISL | 0.68 ± 0.032

Sequence | protein stability index
FPLHSSLSGPPC | 0.737 ± 0.0083
FPLLGRCCRAVQ | 0.682 ± 0.043
FPLPHVIPSPAS | 0.559 ± 0.022
FPLPLPVLSSPS | 0.646 ± 0.15
FPLSFLLDLLLV | 0.509 ± 0.013
FPLTKASSPSLL | 0.672 ± 0.073
FPLVPPPSSPLF | 0.687 ± 0.022
FPPAHPPPCLPP | 0.6473 ± 0.003
FPPPLPLLSPLP | 0.671 ± 0.079
FPPPPPPPPPSP | 0.723 ± 0.028
FPPPPPVPPPLS | 0.723 ± 0.047
FPPPPRPSSPLL | 0.693 ± 0.024
FPPPPYPEFYPC | 0.798 ± 0.077
FPPSDPAPTLPP | 0.749 ± 0.088
FPRFGRGVGRRT | 0.67 ± 0.0073
FPRPSLPFPPHR | 0.609 ± 0.00064
FPRRLLPLSPPP | 0.704 ± 0.015
FPRRPSPGPLIS | 0.678 ± 0.035
FPSCVLGGWYCG | 0.7114 ± 0.0016
FPSPSLSSLPPL | 0.725 ± 0.058
FQCLPHGFYFGA | 0.661 ± 0.0098
FQFSFLRFGGCA | 0.651 ± 0.048
FQLFLPPFRLPP | 0.801 ± 0.18
FQSSSKSRPRPA | 0.669 ± 0.057
FQWAPGIDTVYC | 0.705 ± 0.058

Sequence | protein stability index
FRAYCLPCNYHR | 0.68 ± 0.052
FRCQHVRVSASF | 0.799 ± 0.028
FRDEVLGSGVGS | 0.65 ± 0.017
FRELIRPSKENR | 0.664 ± 0.025
FRFSELPTGFGQ | 0.664 ± 0.058
FRGTLRFYRPVN | 0.696 ± 0.016
FRGTVYRGTRPR | 0.622 ± 0.072
FRKALRIQSVGS | 0.6926 ± 0.0019
FRLAPPSVYDFV | 0.7008 ± 0.002
FRLDRYLGGKIG | 0.641 ± 0.063
FRNESLVAGKSG | 0.717 ± 0.076
FRPPPTLLLRPH | 0.676 ± 0.026
FRRHRHDVLTVR | 0.599 ± 0.05
FRRRYGCLLRGE | 0.6573 ± 0.004
FRSRFGPCLRSV | 0.649 ± 0.027
FRTPASLSLPLS | 0.676 ± 0.021
FSARCGGGLDWS | 0.722 ± 0.038
FSASMSTIWQTG | 0.602 ± 0.034
FSCKRMISKTGF | 0.669 ± 0.035
FSFCRLPDSPSS | 0.698 ± 0.026
FSFQTLPTPTSP | 0.655 ± 0.06
FSGCVEIYWHWL | 0.662 ± 0.011
FSGLNWLLCHSK | 0.704 ± 0.015
FSGWVFAPFFFF | 0.644 ± 0.048
FSHPCPLSGLYP | 0.716 ± 0.015

Sequence | protein stability index
FSHPLLRARRTW | 0.656 ± 0.086
FSLGPSPLRPHA | 0.611 ± 0.086
FSLLSSSSFFVL | 0.591 ± 0.01
FSLPPNPQPKLL | 0.741 ± 0.07
FSLSRLCFCFRS | 0.529 ± 0.024
FSNFVYFFFRSS | 0.666 ± 0.12
FSPPLGRFLLRH | 0.707 ± 0.062
FSPSFGSLLVIC | 0.556 ± 0.02
FSPVSAPPTRVS | 0.703 ± 0.042
FSRLLCPPSFSF | 0.658 ± 0.0072
FSRVRNVLGLGG | 0.73 ± 0.12
FSSAINSFAFQP | 0.683 ± 0.026
FSSHGFSSFLLL | 0.691 ± 0.084
FSSSMCLGMRLR | 0.639 ± 0.096
FSSSSLFFSRTL | 0.677 ± 0.052
FSVFFDFIIARF | 0.632 ± 0.067
FSVFSCLVCSLD | 0.575 ± 0.011
FSVWCDLFGFFC | 0.674 ± 0.075
FTLRILSRPVIP | 0.656 ± 0.046
FTQVIQQQRRVV | 0.627 ± 0.067
FTSGESVCGGRV | 0.698 ± 0.0026
